The text below walks through data of publication PMC7840129, “Structural basis for heme-dependent NCoR binding to the transcriptional repressor REV-ERBβ” (Science Advances, 2021).

Broadly, the Kd is the concentration at which binding is half-saturated.

Like-named read-outs stand apart in the source and are kept apart here.

The target of assay [1] is T1, Apo REV-ERBβ LBD (Homo sapiens, UniProt Q14995).
T1 construct: The human REV-ERBβ LBD (residues 381 to 579) was previously cloned; 6xHis with 3C protease cleavage site (N, cleaved yes); made in house; host or cells: E. coli BL21(DE3)
T1 sequence (Q14995 381-579): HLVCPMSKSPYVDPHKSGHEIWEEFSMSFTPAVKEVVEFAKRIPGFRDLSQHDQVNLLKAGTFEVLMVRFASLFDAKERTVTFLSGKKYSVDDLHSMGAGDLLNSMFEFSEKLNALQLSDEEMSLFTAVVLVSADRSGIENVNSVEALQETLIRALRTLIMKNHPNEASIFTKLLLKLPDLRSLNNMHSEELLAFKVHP
The experiment in a line: ITC, NCoR RID constructs with apo REV-ERBβ LBD. Type of assay: binding. As to conditions: WT RID; for Kd: LBD 150 μM (2 × 20 injections) into 15 μM RID, pH 7.4, 25°C, two nonsymmetric sites, microscopic K model. The procedure: (§1) Human REV-ERBβ LBD was expressed in BL21(DE3) Escherichia coli cells with an N-terminal hexahistidine (6xHis) tag separated by a 3C protease cleavage site. Expression was performed using auto-induction media: Cells were grown at 37°C for 5 hours, 30°C for 1 hour, and 18°C for 16 hours before harvesting by centrifugation. Pellets were resuspended in potassium phosphate lysis buffer [40 mM potassium phosphate (pH 7.4), 500 mM KCl, 15 mM imidazole, and 1 mM dithiothreitol (DTT)] supplemented with leupeptin, pepstatin A, lysozyme, and deoxyribonuclease (DNase) I and sonicated on ice. […] A 5-ml aliquot of 6xHis-tagged protein was purified by size exclusion chromatography using a Superdex 75 column equilibrated in time-resolved fluorescence energy transfer (TR-FRET) assay buffer [20 mM potassium phosphate (pH 7.4), 50 mM KCl, and 0.5 mM EDTA]; purified aliquots were stored at −80°C for TR-FRET assays. To cleave the 6xHis tag from the remaining protein, it was incubated overnight with 3C protease (generated in-house) via dialysis; then, protein was reloaded onto the HisTrap columns, and the flow-through was collected. Last, aggregates were removed by size exclusion chromatography using a Superdex 75 column and Hepes gel filtration buffer [20 mM Hepes (pH 7.4), 50 mM KCl, and 0.5 mM EDTA]. Greater than 95% purity was confirmed by SDS-PAGE. Protein was aliquoted and stored at −80°C.
(§2) ITC experiments were performed using a MicroCal iTC200. All experiments were solvent-matched and contained 0.1% DMSO (peptide vehicle) and 0.2% 0.2 M solution of NaOH (heme vehicle) final concentrations. NITPIC software ([37]) was used to calculate baselines and integrate curves and prepare experimental data for fitting in SEDPHAT, which was used to generate final binding affinity and thermodynamic parameter measurements ([38]).Final figures were exported to GUSSI for publication-quality figure preparation ([39]).
[…] REV-ERBβ LBD in the syringe was titrated into the RID in the sample cell as described above, with the exception that a total of 4 molar equivalents were titrated over 20 injections. […] For apo LBD into WT RID, data were fit to A + B ↔ AB + B ↔ BA + A ↔ BAB, with two nonsymmetric sites, microscopic K model in SEDPHAT. For apo LBD into ΔID2, data were fit to an A + B ↔ AB hetero-association model in SEDPHAT. For heme-bound LBD into WT RID, data were fit to an A + B ↔ AB hetero-association model in SEDPHAT.
NCoR RID constructs (including WT, ΔID1, ΔID2, and ΔID1ΔID2) were transformed into BL21(DE3) E. coli cells, which were grown in 2 liters of Terrific Broth media [yeast extract (24 g/liter), tryptone (12 g/liter), KH2PO4 ([…]), K2HPO4 ([…]), and glycerol (4 ml/liter)] at 37°C until OD600 reached 0.7 to 0.8. Expression was induced with 0.75 mM IPTG for 2 hours at 37°C before cells were harvested by centrifugation. Pellets were washed 1× with phosphate-buffered saline and stored at −80°C until purification. Pellets were resuspended on ice in Hepes lysis buffer [25 mM Hepes (pH 7.4), 150 mM NaCl, 2 M urea, and 15 mM imidazole] supplemented with 1 mM DTT, pepstatin A, leupeptin, lysozyme, DNase I, phenylmethylsulfonyl fluoride, and 0.1% Tween 20, and cell slurry was sonicated on ice. Lysed cells were centrifuged at 20,000g for 30 min at 4°C, and soluble lysate was filtered before IMAC purification using 2 × 5 ml HisTrap columns (GE Healthcare) affixed to an ÄKTA pure; elution buffer was 25 mM Hepes (pH 7.4), 150 mM NaCl, and 500 mM imidazole. Fractions were pooled; additional protease inhibitors were added, and protein was dialyzed against 25 mM Hepes (pH 7.0), 150 mM NaCl, and 1 mM DTT with Tobacco etch virus (TEV) protease to cleave the Trx-6xHis tag at 4°C overnight. Cleaved protein was reloaded on HisTrap columns and eluted with 50 mM bis-tris (pH 6.7), 150 mM NaCl, and 1 mM DTT. […]
(In general: In ITC the heat of successive injections is recorded.)

The target in assay [2] is T2, heme-bound REV-ERBβ LBD (Homo sapiens, UniProt Q14995).
T2 construct: The human REV-ERBβ LBD (residues 381 to 579) was previously cloned; 6xHis with 3C protease cleavage site (N, cleaved yes); made in house; host or cells: E. coli BL21(DE3)
T2 sequence (Q14995 381-579): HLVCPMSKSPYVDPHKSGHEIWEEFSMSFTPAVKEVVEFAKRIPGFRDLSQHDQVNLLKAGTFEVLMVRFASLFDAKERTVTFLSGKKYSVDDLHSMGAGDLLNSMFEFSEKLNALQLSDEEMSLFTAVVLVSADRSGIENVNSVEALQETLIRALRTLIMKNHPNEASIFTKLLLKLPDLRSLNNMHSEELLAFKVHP
The experiment in a line: ITC, NCoR RID constructs with heme-bound REV-ERBβ LBD. Type of assay: binding. The method, then: as §1, §2
NCoR RID constructs (WT, ΔID1, ΔID2, or ΔID1ΔID2) were prepared in assay buffer at 15 μM, and REV-ERBβ LBD was prepared at 300 μM. REV-ERBβ LBD in the syringe was titrated into the RID in the sample cell as described above, with the exception that a total of 4 molar equivalents were titrated over 20 injections. […] For apo LBD into WT RID, data were fit to A + B ↔ AB + B ↔ BA + A ↔ BAB, with two nonsymmetric sites, microscopic K model in SEDPHAT. For apo LBD into ΔID2, data were fit to an A + B ↔ AB hetero-association model in SEDPHAT. For heme-bound LBD into WT RID, data were fit to an A + B ↔ AB hetero-association model in SEDPHAT.
NCoR RID constructs (including WT, ΔID1, ΔID2, and ΔID1ΔID2) were transformed into BL21(DE3) E. coli cells, which were grown in 2 liters of Terrific Broth media [yeast extract (24 g/liter), tryptone (12 g/liter), KH2PO4 ([…]), K2HPO4 ([…]), and glycerol (4 ml/liter)] at 37°C until OD600 reached 0.7 to 0.8. Expression was induced with 0.75 mM IPTG for 2 hours at 37°C before cells were harvested by centrifugation. Pellets were washed 1× with phosphate-buffered saline and stored at −80°C until purification. Pellets were resuspended on ice in Hepes lysis buffer [25 mM Hepes (pH 7.4), 150 mM NaCl, 2 M urea, and 15 mM imidazole] supplemented with 1 mM DTT, pepstatin A, leupeptin, lysozyme, DNase I, phenylmethylsulfonyl fluoride, and 0.1% Tween 20, and cell slurry was sonicated on ice. […]

Setting [3] is: +Heme LBD, WT RID, 25°C, A + B ↔ AB model, 95% CI.

B1: WT RID: mouse NCoR RID (residues 1942 to 2208 in the X50 splice variant) (protein, UniProt Q60974 1942-2208, looked up, fragment)
chain: TITAANFIDVIITRQIASDKDARERGSQSSDSSSSLSSHRYETASDAIEVISPASSPAPPQEKPQAYQPDMVKANQAENESTRQYEGPLHHYRSQQESPSPQQQPPLPPSSQSEGMGQVPRTHRLITLADHICQIITQDFARNQVPSQASTSTFQTSPSALSSTPVRTKTSSRYSPESQSQTVLHPRPGPRVSPENLVDKSRGSRPGKSPERSHIPSEPYEPISPPQGPAVHEKQDSMLLLSQRGVDPAEQRSDSRSPGSISYLPSF
modifications: X50 splice variant
B1: the “LBD:RID stoichiometry” value in assay [1] is on record as “two apo LBDs interact with one RID, most likely with positive cooperativity”. Also, in assay [1] (95% CI, read-out: KD, Site 1), the dissociation constant (Kd) amounted to 12 nM. Besides, the Kd in assay [1] (95% CI, read-out: KD, Site 2) was 740 nM. Also, in assay [1] (site 1, 25°C, 95% CI), the “TΔS, Site 1” value is 2.5 kcal/mol; the “ΔG, Site 1” value is -10.8 kcal/mol; the “ΔH, Site 1” value is -8.3 kcal/mol. Besides, in assay [1] (site 2, 25°C, 95% CI), the “TΔS, Site 2” value is on record as 12 (95% CI: 11 to13) kcal/mol; the “ΔG, Site 2” value was -8.4 kcal/mol; the “ΔH, Site 2” value was 3.2 kcal/mol. Moreover, in assay [2] (setting [3]), the TΔS turned out to be 11.2 kcal/mol, the ΔG is -9.6 kcal/mol and the ΔH was 1.7 kcal/mol. The Kd in assay [2] (+Heme LBD, WT RID, LBD 300 μM into 15 μM RID, pH 7.4, 25°C, A + B ↔ AB hetero-association model, 95% CI) was determined as 99 nM. The “RID binding to heme-bound LBD (in words)” value in assay [2] (heme-bound LBD, RID mutants and WT) is listed as “must involve positive cooperativity”.
